Measurements published in the supplement of paper PMC7877785.
± gives the uncertainty stated by the source.

Assay: self-splicing fitness, log relative to wild type (ln ratio); higher = more splicing; Tetrahymena group I intron in knt gene, E. coli kanamycin selection, DiMSum; sequences stand for … in CUCUCU…GGAGGGAAAAGUUAUCAGGCAUGCACCUGGUAGCUAGUCUUUAAACCAAUAGAUUGCAUCGGUUUAAAAGGCAAGACCGUCAAAUUGCGGGAAAGGGGUCAACAGCCGUUCAGUACCAAGUCUCAGGGGAAACUUUGAGAUGGCCUUGCAAAGGGUAUGGUAAUAAGCUGACGGACAUGGUCCUAACCACGCAGCCAAGUCCUAAGUCAACAGAUCUUCUGUUGAUAUGGAUGCAGUUCACAGACUAAAUGUCGGUCGGGGAAGAUGUAUUCUUCUCAUAAGAUAUAGUCGGACCUCUCCUUAAUGGGAGCUAGCGGAUGAAGUGAUGCAACACUGGAGCCGCUGGGAACUAAUUUGUAUGCGAAAGUAUAUUGAUUAGUUUUGGAGUACUCGUGGUCG
In short: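 A randomised library covering all eight P1ex-region intron nucleotides was built with the intron in the knt kanamycin-resistance gene on pET-22b(+) and held in E. coli BL21(DE3). Cells were grown overnight at 37°C or 30°C on LB agar, with or without 25 μg/mL kanamycin, plus 100 μg/mL carbenicillin, 50 μM IPTG and 0.2% rhamnose, and pooled colonies were amplicon-sequenced on an Illumina HiSeq 2500. DiMSum fitness is the error-weighted combination of wild-type-normalised replicate fold changes, kanamycin versus none.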

CGACAGCAAUAUUACGUUCU
self-splicing fitness (ln) (30 °C): -0.971 ± 0.05
self-splicing fitness (ln) (37 °C): -0.0323 ± 0.07

CGACAGCAAUAUUACGUUGG
self-splicing fitness (ln) (30 °C): -2.92 ± 0.1
self-splicing fitness (ln) (37 °C): -1.54 ± 0.1

CGAGAGCAAUAUUACGAAAC
self-splicing fitness (ln) (30 °C): -2.91 ± 0.36
self-splicing fitness (ln) (37 °C): -1.97 ± 0.48

CGAGAGCAAUAUUACGAAUG
self-splicing fitness (ln) (30 °C): -2.96 ± 0.2
self-splicing fitness (ln) (37 °C): -2.03 ± 0.21

CGAGAGCAAUAUUACGAUCG
self-splicing fitness (ln) (30 °C): -2.87 ± 0.43

CGAGAGCAAUAUUACGCAUC
self-splicing fitness (ln) (30 °C): -3.04 ± 0.35
self-splicing fitness (ln) (37 °C): -2.33 ± 0.35

CGAGAGCAAUAUUACGCAUG
self-splicing fitness (ln) (30 °C): -2.98 ± 0.12
self-splicing fitness (ln) (37 °C): -2.02 ± 0.12

CGAGAGCAAUAUUACGCGUA
self-splicing fitness (ln) (30 °C): -3.31 ± 0.19
self-splicing fitness (ln) (37 °C): -2.67 ± 0.29

CGAGAGCAAUAUUACGCUUG
self-splicing fitness (ln) (30 °C): -3.51 ± 0.33
self-splicing fitness (ln) (37 °C): -3.14 ± 0.34

CGAGAGCAAUAUUACGGCUU
self-splicing fitness (ln) (37 °C): -3.05 ± 0.4

CGAGAGCAAUAUUACGGUAC
self-splicing fitness (ln) (30 °C): -3.63 ± 0.47
self-splicing fitness (ln) (37 °C): -0.529 ± 0.28

CGAGAGCAAUAUUACGGUUG
self-splicing fitness (ln) (30 °C): -2.88 ± 0.14
self-splicing fitness (ln) (37 °C): -1.21 ± 0.14

CGAGAGCAAUAUUACGUAAU
self-splicing fitness (ln) (37 °C): -2.01 ± 0.3

CGAGAGCAAUAUUACGUACC
self-splicing fitness (ln) (30 °C): -3.27 ± 0.38
self-splicing fitness (ln) (37 °C): -1.7 ± 0.41

CGAGAGCAAUAUUACGUGCG
self-splicing fitness (ln) (30 °C): -3.43 ± 0.29
self-splicing fitness (ln) (37 °C): -1.8 ± 0.2

CGAGAGCAAUAUUACGUGGC
self-splicing fitness (ln) (30 °C): -4.31 ± 0.46
self-splicing fitness (ln) (37 °C): -2.55 ± 0.26

CGAGAGCAAUAUUACGUGUU
self-splicing fitness (ln) (30 °C): -3.83 ± 0.25
self-splicing fitness (ln) (37 °C): -3.71 ± 0.46

CGAUAGCAAUAUUACGAACG
self-splicing fitness (ln) (30 °C): -0.892 ± 0.11
self-splicing fitness (ln) (37 °C): 0.0703 ± 0.12

CGAUAGCAAUAUUACGAAGC
self-splicing fitness (ln) (37 °C): -1.1 ± 0.4

CGAUAGCAAUAUUACGAAUA
self-splicing fitness (ln) (30 °C): -0.837 ± 0.46
self-splicing fitness (ln) (37 °C): -1.47 ± 0.46

CGAUAGCAAUAUUACGAAUC
self-splicing fitness (ln) (30 °C): -3.74 ± 0.22
self-splicing fitness (ln) (37 °C): -3.08 ± 0.28

CGAUAGCAAUAUUACGAGCA
self-splicing fitness (ln) (30 °C): -3.83 ± 0.26
self-splicing fitness (ln) (37 °C): -1.86 ± 0.17

CGAUAGCAAUAUUACGAGCC
self-splicing fitness (ln) (30 °C): -2.23 ± 0.28
self-splicing fitness (ln) (37 °C): -2.61 ± 0.44

CGAUAGCAAUAUUACGAGGC
self-splicing fitness (ln) (30 °C): -3.66 ± 0.35
self-splicing fitness (ln) (37 °C): -1.95 ± 0.48

CGAUAGCAAUAUUACGAGUC
self-splicing fitness (ln) (30 °C): -2.74 ± 0.19
self-splicing fitness (ln) (37 °C): -3.73 ± 0.39

CGAUAGCAAUAUUACGCAAC
self-splicing fitness (ln) (30 °C): -3.83 ± 0.4
self-splicing fitness (ln) (37 °C): -2.49 ± 0.3

CGAUAGCAAUAUUACGCACU
self-splicing fitness (ln) (30 °C): -1.12 ± 0.14
self-splicing fitness (ln) (37 °C): 0.174 ± 0.14

CGAUAGCAAUAUUACGCCUU
self-splicing fitness (ln) (30 °C): -2.23 ± 0.17
self-splicing fitness (ln) (37 °C): -2.24 ± 0.17

CGAUAGCAAUAUUACGCGAA
self-splicing fitness (ln) (30 °C): -2.95 ± 0.21
self-splicing fitness (ln) (37 °C): -1.92 ± 0.21

CGAUAGCAAUAUUACGCGAG
self-splicing fitness (ln) (30 °C): -3.16 ± 0.26
self-splicing fitness (ln) (37 °C): -2.42 ± 0.2

CGAUAGCAAUAUUACGCUAA
self-splicing fitness (ln) (37 °C): -0.607 ± 0.26

CGAUAGCAAUAUUACGCUAG
self-splicing fitness (ln) (30 °C): -1.18 ± 0.1
self-splicing fitness (ln) (37 °C): -1.52 ± 0.19

CGAUAGCAAUAUUACGCUGA
self-splicing fitness (ln) (30 °C): -2.46 ± 0.17
self-splicing fitness (ln) (37 °C): -1.59 ± 0.16

CGAUAGCAAUAUUACGGAGG
self-splicing fitness (ln) (30 °C): -1.28 ± 0.14
self-splicing fitness (ln) (37 °C): -1.17 ± 0.15

CGAUAGCAAUAUUACGGAUG
self-splicing fitness (ln) (30 °C): -0.777 ± 0.058
self-splicing fitness (ln) (37 °C): 0.18 ± 0.07

CGAUAGCAAUAUUACGGCGA
self-splicing fitness (ln) (30 °C): -1.5 ± 0.25
self-splicing fitness (ln) (37 °C): -1.11 ± 0.16

CGAUAGCAAUAUUACGGGAU
self-splicing fitness (ln) (30 °C): -4.23 ± 0.31
self-splicing fitness (ln) (37 °C): -2.86 ± 0.27

CGAUAGCAAUAUUACGGGUC
self-splicing fitness (ln) (30 °C): -4.07 ± 0.46
self-splicing fitness (ln) (37 °C): -2.46 ± 0.3

CGAUAGCAAUAUUACGGUCU
self-splicing fitness (ln) (30 °C): -0.529 ± 0.072
self-splicing fitness (ln) (37 °C): 0.511 ± 0.097

CGAUAGCAAUAUUACGGUGU
self-splicing fitness (ln) (30 °C): -2.7 ± 0.11
self-splicing fitness (ln) (37 °C): -1.06 ± 0.095

CGAUAGCAAUAUUACGUACU
self-splicing fitness (ln) (30 °C): -1.12 ± 0.081
self-splicing fitness (ln) (37 °C): -0.791 ± 0.12

CGAUAGCAAUAUUACGUAGU
self-splicing fitness (ln) (30 °C): -3.93 ± 0.18
self-splicing fitness (ln) (37 °C): -1.06 ± 0.1

CGAUAGCAAUAUUACGUAUC
self-splicing fitness (ln) (30 °C): -3.4 ± 0.3

CGAUAGCAAUAUUACGUCGG
self-splicing fitness (ln) (30 °C): -1.16 ± 0.11
self-splicing fitness (ln) (37 °C): -0.171 ± 0.11

CGAUAGCAAUAUUACGUGAU
self-splicing fitness (ln) (30 °C): -3.02 ± 0.1
self-splicing fitness (ln) (37 °C): -0.808 ± 0.088

CGAUAGCAAUAUUACGUGGG
self-splicing fitness (ln) (30 °C): -2.61 ± 0.17
self-splicing fitness (ln) (37 °C): -0.763 ± 0.16

CGAUAGCAAUAUUACGUUGU
self-splicing fitness (ln) (30 °C): -3.45 ± 0.15
self-splicing fitness (ln) (37 °C): -2.61 ± 0.21

CGAUAGCAAUAUUACGUUUC
self-splicing fitness (ln) (37 °C): -2.12 ± 0.15

CGCAAGCAAUAUUACGAAAG
self-splicing fitness (ln) (30 °C): -0.888 ± 0.071
self-splicing fitness (ln) (37 °C): -1.12 ± 0.093

CGCAAGCAAUAUUACGAACG
self-splicing fitness (ln) (30 °C): -1.23 ± 0.1
self-splicing fitness (ln) (37 °C): -1.03 ± 0.14

CGCAAGCAAUAUUACGAAGU
self-splicing fitness (ln) (30 °C): -4.42 ± 0.36
self-splicing fitness (ln) (37 °C): -0.741 ± 0.15

CGCAAGCAAUAUUACGACAU
self-splicing fitness (ln) (30 °C): -2.999 ± 0.017
self-splicing fitness (ln) (37 °C): -1.77 ± 0.034

CGCAAGCAAUAUUACGAGAG
self-splicing fitness (ln) (30 °C): -2.52 ± 0.1
self-splicing fitness (ln) (37 °C): -2.24 ± 0.15

CGCAAGCAAUAUUACGAGCA
self-splicing fitness (ln) (30 °C): -0.102 ± 0.1
self-splicing fitness (ln) (37 °C): 0.368 ± 0.14

CGCAAGCAAUAUUACGAGUC
self-splicing fitness (ln) (30 °C): -3.43 ± 0.13
self-splicing fitness (ln) (37 °C): -2.97 ± 0.19

CGCAAGCAAUAUUACGAUCU
self-splicing fitness (ln) (30 °C): -1.61 ± 0.073
self-splicing fitness (ln) (37 °C): -0.39 ± 0.085

CGCAAGCAAUAUUACGCAAC
self-splicing fitness (ln) (30 °C): -3.19 ± 0.36
self-splicing fitness (ln) (37 °C): -3.11 ± 0.37

CGCAAGCAAUAUUACGCACC
self-splicing fitness (ln) (30 °C): -1.54 ± 0.29
self-splicing fitness (ln) (37 °C): -0.0713 ± 0.4

CGCAAGCAAUAUUACGCAGU
self-splicing fitness (ln) (30 °C): -3.23 ± 0.17
self-splicing fitness (ln) (37 °C): -2.62 ± 0.21

CGCAAGCAAUAUUACGCCCG
self-splicing fitness (ln) (30 °C): -1.22 ± 0.21
self-splicing fitness (ln) (37 °C): -1.93 ± 0.31

CGCAAGCAAUAUUACGCGAA
self-splicing fitness (ln) (30 °C): -3.58 ± 0.16
self-splicing fitness (ln) (37 °C): -1.87 ± 0.13

CGCAAGCAAUAUUACGCUAC
self-splicing fitness (ln) (37 °C): -2.82 ± 0.48

CGCAAGCAAUAUUACGGAAU
self-splicing fitness (ln) (30 °C): -3.63 ± 0.15
self-splicing fitness (ln) (37 °C): -2.77 ± 0.18

CGCAAGCAAUAUUACGGACA
self-splicing fitness (ln) (30 °C): -0.905 ± 0.14
self-splicing fitness (ln) (37 °C): -0.195 ± 0.14

CGCAAGCAAUAUUACGGCGG
self-splicing fitness (ln) (30 °C): -0.329 ± 0.073
self-splicing fitness (ln) (37 °C): 0.31 ± 0.09

CGCAAGCAAUAUUACGUAAC
self-splicing fitness (ln) (30 °C): -3.76 ± 0.23
self-splicing fitness (ln) (37 °C): -2.31 ± 0.19

CGCAAGCAAUAUUACGUAUC
self-splicing fitness (ln) (30 °C): -3.14 ± 0.13
self-splicing fitness (ln) (37 °C): -2.33 ± 0.19

CGCAAGCAAUAUUACGUCAC
self-splicing fitness (ln) (30 °C): -3.45 ± 0.21
self-splicing fitness (ln) (37 °C): -2.12 ± 0.23

CGCAAGCAAUAUUACGUGAC
self-splicing fitness (ln) (30 °C): -2.74 ± 0.2
self-splicing fitness (ln) (37 °C): -2.5 ± 0.3

CGCAAGCAAUAUUACGUUCA
self-splicing fitness (ln) (30 °C): -1.33 ± 0.1
self-splicing fitness (ln) (37 °C): -0.636 ± 0.098

CGCCAGCAAUAUUACGAACA
self-splicing fitness (ln) (30 °C): -3.55 ± 0.26
self-splicing fitness (ln) (37 °C): -0.716 ± 0.11

CGCCAGCAAUAUUACGAUUA
self-splicing fitness (ln) (30 °C): -2.37 ± 0.15
self-splicing fitness (ln) (37 °C): -2.68 ± 0.21

CGCCAGCAAUAUUACGCAAC
self-splicing fitness (ln) (30 °C): -3.25 ± 0.27
self-splicing fitness (ln) (37 °C): -3.44 ± 0.42

CGCCAGCAAUAUUACGCACG
self-splicing fitness (ln) (30 °C): -1.66 ± 0.11
self-splicing fitness (ln) (37 °C): -1.47 ± 0.17

CGCCAGCAAUAUUACGCAGC
self-splicing fitness (ln) (30 °C): -2.96 ± 0.34
self-splicing fitness (ln) (37 °C): -2.4 ± 0.38

CGCCAGCAAUAUUACGCAGG
self-splicing fitness (ln) (30 °C): -2.06 ± 0.2
self-splicing fitness (ln) (37 °C): -2.56 ± 0.26

CGCCAGCAAUAUUACGCCCU
self-splicing fitness (ln) (30 °C): -1.93 ± 0.14
self-splicing fitness (ln) (37 °C): -0.637 ± 0.13

CGCCAGCAAUAUUACGCGUC
self-splicing fitness (ln) (30 °C): -3.41 ± 0.17
self-splicing fitness (ln) (37 °C): -2.33 ± 0.15
